Experimental data as given in patent CN109897110A (SHENZHEN BGI LIFE SCIENCE RES INSTITUTE, dated 2019).

Target: T1, 人PCSK9抗原多肽 (前蛋白转化酶枯草溶菌素9, PCSK9) (human, UniProt Q8NBP7 31-692, limits assumed)
T1 construct: Expressed in CHO cells; also called PCSK9蛋白; Proprotein convertase subtilisin/kexin type 9
Experiment: ProteOn (SPR), PCSK9 immobilised on chip, nanobody dilution series as analyte

T1 sequence (Q8NBP7 31-692 limits assumed): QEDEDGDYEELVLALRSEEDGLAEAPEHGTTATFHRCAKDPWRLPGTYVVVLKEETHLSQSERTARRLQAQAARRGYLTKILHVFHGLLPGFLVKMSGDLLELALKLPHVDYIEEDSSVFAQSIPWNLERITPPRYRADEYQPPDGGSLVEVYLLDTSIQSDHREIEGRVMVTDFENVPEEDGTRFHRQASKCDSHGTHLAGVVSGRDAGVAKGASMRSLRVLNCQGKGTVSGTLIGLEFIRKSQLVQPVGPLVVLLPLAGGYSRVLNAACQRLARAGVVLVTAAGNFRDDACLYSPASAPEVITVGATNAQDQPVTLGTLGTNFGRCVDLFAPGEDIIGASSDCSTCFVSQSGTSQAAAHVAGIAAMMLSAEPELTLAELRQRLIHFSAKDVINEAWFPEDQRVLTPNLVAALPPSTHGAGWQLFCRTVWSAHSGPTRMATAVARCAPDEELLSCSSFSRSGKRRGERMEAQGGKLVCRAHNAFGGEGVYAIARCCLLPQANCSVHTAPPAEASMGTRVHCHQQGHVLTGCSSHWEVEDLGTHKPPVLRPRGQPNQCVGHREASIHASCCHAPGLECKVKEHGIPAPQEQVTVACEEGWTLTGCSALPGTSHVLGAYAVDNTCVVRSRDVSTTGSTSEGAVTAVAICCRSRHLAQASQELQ

Kd: 0.025 µM
koff: 0.000112 s⁻¹
kon: 4490 M⁻¹ s⁻¹
B1: PCSK9纳米抗体 (VHH)
VHH: ESGGGSVQAGGSLRLSCTVSGYTYSSNCMGWFRQAPGKEHEGVASIYIGGGSTYYADSVKGRFTISQDNAKNTVYLQMNSLKPEDTAMYYCAVGCQGLVDFGYWDQGTQVTVSS
notes: Expressed from pMECS in E. coli HB2151 and purified on a Ni column; also called PCSK9 Nb; PCSK9 nanobody; not shown: tags from the pMECS vector (HA tag detected with anti-HA antibody); purified on a
